Data reported in the Human Domainome abundance scans (Beltran et al. 2025).
± gives the uncertainty stated by the source.

B1: Zinc finger homeobox protein 3, residues 2643 to 2698; numbered along this chain, Q15911 (parent)
chain: RLRTTITPEQLEILYQKYLLDSNPTRKMLDHIAHEVGLKKRVVQVWFQNTRARERK

Variants of: B1
Assay: abundance fitness (aPCA) (normalised: wild type 0, dead -1); higher = more abundant; growth selection in yeast, the domain comes from the species named
Conditions: Homo sapiens

Variant | abundance fitness
RLRTTITPEQLEILYQKYLLDSNPTRKMLDHIAHEVGLKTRVVQVWFQNTRARERK [K40T] | 0.355 ± 0.1
RLRTTITPEQLEILYQKYLLDSNPTRKMLDHIAHEVGLKVRVVQVWFQNTRARERK [K40V] | 0.161 ± 0.079
RLRTTITPEQLEILYQKYLLDSNPTRKMLDHIAHEVGLKWRVVQVWFQNTRARERK [K40W] | 0.212 ± 0.11
RLRTTITPEQLEILYQKYLLDSNPTRKMLDHIAHEVGLKYRVVQVWFQNTRARERK [K40Y] | 0.16 ± 0.18
RLRTTITPEQLEILYQKYLLDSNPTRKMLDHIAHEVGLKKAVVQVWFQNTRARERK [R41A] | 0.159 ± 0.11
RLRTTITPEQLEILYQKYLLDSNPTRKMLDHIAHEVGLKKCVVQVWFQNTRARERK [R41C] | 0.256 ± 0.12
RLRTTITPEQLEILYQKYLLDSNPTRKMLDHIAHEVGLKKDVVQVWFQNTRARERK [R41D] | 0.773 ± 0.18
RLRTTITPEQLEILYQKYLLDSNPTRKMLDHIAHEVGLKKEVVQVWFQNTRARERK [R41E] | 0.475 ± 0.12
RLRTTITPEQLEILYQKYLLDSNPTRKMLDHIAHEVGLKKFVVQVWFQNTRARERK [R41F] | -0.203 ± 0.2
RLRTTITPEQLEILYQKYLLDSNPTRKMLDHIAHEVGLKKGVVQVWFQNTRARERK [R41G] | 0.353 ± 0.079
RLRTTITPEQLEILYQKYLLDSNPTRKMLDHIAHEVGLKKHVVQVWFQNTRARERK [R41H] | 0.031 ± 0.19
RLRTTITPEQLEILYQKYLLDSNPTRKMLDHIAHEVGLKKIVVQVWFQNTRARERK [R41I] | 0.544 ± 0.18
RLRTTITPEQLEILYQKYLLDSNPTRKMLDHIAHEVGLKKKVVQVWFQNTRARERK [R41K] | 0.297 ± 0.18
RLRTTITPEQLEILYQKYLLDSNPTRKMLDHIAHEVGLKKLVVQVWFQNTRARERK [R41L] | -0.001 ± 0.1
RLRTTITPEQLEILYQKYLLDSNPTRKMLDHIAHEVGLKKMVVQVWFQNTRARERK [R41M] | -0.078 ± 0.18
RLRTTITPEQLEILYQKYLLDSNPTRKMLDHIAHEVGLKKNVVQVWFQNTRARERK [R41N] | 0.2 ± 0.36
RLRTTITPEQLEILYQKYLLDSNPTRKMLDHIAHEVGLKKPVVQVWFQNTRARERK [R41P] | -0.144 ± 0.23
RLRTTITPEQLEILYQKYLLDSNPTRKMLDHIAHEVGLKKQVVQVWFQNTRARERK [R41Q] | 0.287 ± 0.15
RLRTTITPEQLEILYQKYLLDSNPTRKMLDHIAHEVGLKKSVVQVWFQNTRARERK [R41S] | 0.411 ± 0.1
RLRTTITPEQLEILYQKYLLDSNPTRKMLDHIAHEVGLKKTVVQVWFQNTRARERK [R41T] | 0.514 ± 0.15
RLRTTITPEQLEILYQKYLLDSNPTRKMLDHIAHEVGLKKVVVQVWFQNTRARERK [R41V] | 0.041 ± 0.093
RLRTTITPEQLEILYQKYLLDSNPTRKMLDHIAHEVGLKKWVVQVWFQNTRARERK [R41W] | 0.055 ± 0.12
RLRTTITPEQLEILYQKYLLDSNPTRKMLDHIAHEVGLKKYVVQVWFQNTRARERK [R41Y] | -0.129 ± 0.24
RLRTTITPEQLEILYQKYLLDSNPTRKMLDHIAHEVGLKKRAVQVWFQNTRARERK [V42A] | -0.123 ± 0.095

Variant | abundance fitness
RLRTTITPEQLEILYQKYLLDSNPTRKMLDHIAHEVGLKKRCVQVWFQNTRARERK [V42C] | -0.021 ± 0.12
RLRTTITPEQLEILYQKYLLDSNPTRKMLDHIAHEVGLKKRDVQVWFQNTRARERK [V42D] | 0.226 ± 0.13
RLRTTITPEQLEILYQKYLLDSNPTRKMLDHIAHEVGLKKREVQVWFQNTRARERK [V42E] | 0.387 ± 0.095
RLRTTITPEQLEILYQKYLLDSNPTRKMLDHIAHEVGLKKRFVQVWFQNTRARERK [V42F] | -0.47 ± 0.17
RLRTTITPEQLEILYQKYLLDSNPTRKMLDHIAHEVGLKKRGVQVWFQNTRARERK [V42G] | -0.43 ± 0.081
RLRTTITPEQLEILYQKYLLDSNPTRKMLDHIAHEVGLKKRHVQVWFQNTRARERK [V42H] | -0.288 ± 0.17
RLRTTITPEQLEILYQKYLLDSNPTRKMLDHIAHEVGLKKRIVQVWFQNTRARERK [V42I] | -0.073 ± 0.12
RLRTTITPEQLEILYQKYLLDSNPTRKMLDHIAHEVGLKKRKVQVWFQNTRARERK [V42K] | 0.16 ± 0.15
RLRTTITPEQLEILYQKYLLDSNPTRKMLDHIAHEVGLKKRLVQVWFQNTRARERK [V42L] | -0.03 ± 0.087
RLRTTITPEQLEILYQKYLLDSNPTRKMLDHIAHEVGLKKRMVQVWFQNTRARERK [V42M] | -0.068 ± 0.11
RLRTTITPEQLEILYQKYLLDSNPTRKMLDHIAHEVGLKKRNVQVWFQNTRARERK [V42N] | -0.02 ± 0.14
RLRTTITPEQLEILYQKYLLDSNPTRKMLDHIAHEVGLKKRPVQVWFQNTRARERK [V42P] | -0.932 ± 0.16
RLRTTITPEQLEILYQKYLLDSNPTRKMLDHIAHEVGLKKRQVQVWFQNTRARERK [V42Q] | -0.372 ± 0.14
RLRTTITPEQLEILYQKYLLDSNPTRKMLDHIAHEVGLKKRRVQVWFQNTRARERK [V42R] | -0.44 ± 0.091
RLRTTITPEQLEILYQKYLLDSNPTRKMLDHIAHEVGLKKRSVQVWFQNTRARERK [V42S] | -0.327 ± 0.092
RLRTTITPEQLEILYQKYLLDSNPTRKMLDHIAHEVGLKKRTVQVWFQNTRARERK [V42T] | 0.037 ± 0.11
RLRTTITPEQLEILYQKYLLDSNPTRKMLDHIAHEVGLKKRWVQVWFQNTRARERK [V42W] | -0.048 ± 0.1
RLRTTITPEQLEILYQKYLLDSNPTRKMLDHIAHEVGLKKRYVQVWFQNTRARERK [V42Y] | -0.021 ± 0.15
RLRTTITPEQLEILYQKYLLDSNPTRKMLDHIAHEVGLKKRVCQVWFQNTRARERK [V43C] | -0.345 ± 0.15
RLRTTITPEQLEILYQKYLLDSNPTRKMLDHIAHEVGLKKRVDQVWFQNTRARERK [V43D] | -0.867 ± 0.15
RLRTTITPEQLEILYQKYLLDSNPTRKMLDHIAHEVGLKKRVEQVWFQNTRARERK [V43E] | -1.11 ± 0.14
RLRTTITPEQLEILYQKYLLDSNPTRKMLDHIAHEVGLKKRVFQVWFQNTRARERK [V43F] | -0.815 ± 0.28
RLRTTITPEQLEILYQKYLLDSNPTRKMLDHIAHEVGLKKRVGQVWFQNTRARERK [V43G] | -0.937 ± 0.11
